The text below walks through data of patent publication US20240190989A1 (BEIGENE SWITZERLAND, published 2024).

Numbering of substitutions follows the chain as printed. Numbers in names are those of the source.

One may read the Kd as the equilibrium constant for the complex coming apart.

Assay [1] concerns the target T1, soluble human CEA, amino acids 1-687 of huCEA with C-terminal 6xHis tag (human, UniProt P06731 35-687).
T1 construct: also called sCEA; soluble huCEA
T1 sequence: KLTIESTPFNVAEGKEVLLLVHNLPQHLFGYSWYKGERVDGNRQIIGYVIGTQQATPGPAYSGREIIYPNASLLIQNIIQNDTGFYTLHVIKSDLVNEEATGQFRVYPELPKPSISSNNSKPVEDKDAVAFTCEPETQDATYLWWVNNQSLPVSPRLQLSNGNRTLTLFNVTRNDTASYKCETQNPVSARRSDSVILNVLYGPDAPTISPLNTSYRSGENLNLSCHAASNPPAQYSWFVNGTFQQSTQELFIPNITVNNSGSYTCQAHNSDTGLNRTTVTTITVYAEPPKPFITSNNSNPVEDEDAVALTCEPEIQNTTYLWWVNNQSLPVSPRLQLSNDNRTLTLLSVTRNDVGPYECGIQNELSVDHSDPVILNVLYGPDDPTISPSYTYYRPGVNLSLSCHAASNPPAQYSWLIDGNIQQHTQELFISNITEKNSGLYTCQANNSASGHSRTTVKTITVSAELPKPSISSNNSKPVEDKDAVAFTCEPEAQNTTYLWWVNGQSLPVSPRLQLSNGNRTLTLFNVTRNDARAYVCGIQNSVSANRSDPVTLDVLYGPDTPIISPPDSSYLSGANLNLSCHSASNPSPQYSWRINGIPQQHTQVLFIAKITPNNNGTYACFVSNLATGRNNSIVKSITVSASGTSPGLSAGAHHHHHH
Description: flow cytometry on MKN45 cells, 2 µg/ml antibody, competitor 20 µg/ml recombinant soluble CEA in solution. For orientation: In flow cytometry, cells or beads pass a laser one at a time.
Description: The presence of soluble CEA on the specific binding of various CEA antibodies to CEA expressing cells was evaluated via flow cytometry. […] Cell fluorescence was quantified using a flow cytometer (Guava easyCyte™ 8HT, Merck-Millipore, USA).

In assay [2] the target is full-length human CD137 on cells (Hut78/huCD137, HEK293 transfectants, JK-NFKB-CD137) (human, UniProt Q07011 24-255). As to the kind of experiment: cell-based or functional assay.
Assay [3] addresses T2, human CD137 ECD-mIgG2a (human).
T2 construct: ECD 24-183 of huCD137 fused to mouse IgG2a Fc; also called huCD137-mIgG2a; huCD137
Description: SPR, A-CEAxCD137 format.
Description: Characterization of anti-huCD137 VH domain antibodies were made by SPR assays using BIAcore™ T-200 (GE Life Sciences). Briefly, anti-human IgG (Fc) antibody was immobilized on an activated CM5 biosensor chip (Cat.: BR100839, GE Life Sciences). Anti-huCD137 domain antibodies were flowed over the chip surface and captured by anti-human IgG (Fc) antibody. […] The equilibrium dissociation constant (KD) was calculated as the ratio koff/kₒₙ.
Affinity comparison on CD137 affinity matured variants was made by SPR assays using BIAcore™ T-200 (GE Life Sciences) and flow cytometry as described.

Chain of full-length human CD137 on cells (Hut78/huCD137, HEK293 transfectants, JK-NFKB-CD137) (Q07011 24-255 limits assumed): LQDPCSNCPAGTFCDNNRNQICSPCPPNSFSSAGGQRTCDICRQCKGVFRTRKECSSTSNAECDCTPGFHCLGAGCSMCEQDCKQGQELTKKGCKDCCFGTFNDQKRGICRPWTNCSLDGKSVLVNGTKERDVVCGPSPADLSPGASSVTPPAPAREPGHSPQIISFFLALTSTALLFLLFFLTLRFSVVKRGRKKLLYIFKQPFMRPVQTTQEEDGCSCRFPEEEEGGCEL
T2 sequence (chain, as listed by the source limits assumed): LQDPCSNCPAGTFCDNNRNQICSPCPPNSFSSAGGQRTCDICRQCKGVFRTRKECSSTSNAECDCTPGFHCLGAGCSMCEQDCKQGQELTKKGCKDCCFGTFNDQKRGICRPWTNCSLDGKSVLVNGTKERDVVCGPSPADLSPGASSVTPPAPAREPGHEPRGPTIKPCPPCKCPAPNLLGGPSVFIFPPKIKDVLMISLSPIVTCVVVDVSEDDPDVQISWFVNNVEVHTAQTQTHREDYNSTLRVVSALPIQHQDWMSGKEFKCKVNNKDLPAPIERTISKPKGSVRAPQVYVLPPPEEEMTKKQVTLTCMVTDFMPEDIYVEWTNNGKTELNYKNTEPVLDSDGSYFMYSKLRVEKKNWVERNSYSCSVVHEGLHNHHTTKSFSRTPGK

B1: BGA190 (antibody, V domains shown)
VH: DVQLVESGGGLVQPGGSRELSCAASGFTFSSFGMHWVRQAPERGLEWVAYISIGSDIIYYADTVKGRFTISRDNPKNTLFLQMTSLRSEDTAVYYCTRRSYRSYWYFDVWGAGTTVTVSS
VL: DIQMTQSPASLSASVGETVTITCRTSENIYSYLAWYQQKQGKSPHLLVYNAKTLAEGVPSRFSGSGSGTQFSLKIISLQPEDFGTYYCQHHFLSPWMFGGGTKLEIK
Take B1: the binding result in assay [1] is “binds”.

B2: BE-562 (E-muFc-BGA-5623) (bispecific antibody)
heavy: EVQLLESGGGLVQPGGSLRLSCAASGFTVSAEDVGWVRQAPGKGLEWVSAILDKGGSTYYAESVKGRFTISRDNAKNTLYLQMSSLRAEDTAVYYCARIVYHAGGGVTFDTRGQGTQVTVSSEPKSSDKTHTCPPCPAPPAAGPSVFLFPPKPKDTLMISRTPEVTCVVVDVSHEDPEVKFNWYVDGVEVHNAKTKPREEQYNSTYRVVSVLTVLHQDWLNGKEYKCKVSNKALAAPIEKTISKAKGQPREPQVYTLPPSREEMTKNQVSLTCLVKGFYPSDIAVEWESNGQPENNYKTTPPVLDSDGSFFLYSKLTVDKSRWQQGNVFSCSVMHEALHNHYTQKSLSLSPGKGGGGSQVQLVQSGAEVKKPGASVKVSCKASGYIFTSYYLHWVRQAPGQGLEWIGYINPQTGKTSYAQKFQGRVTMTRDTSTSTVYMELSSLRSEDTAVYYCAREYGNYNYPLDYWGQGTLVTVSSASTKGPSVFPLAPSSKSTSGGTAALGCLVKDYFPEPVTVSWNSGALTSGVHTFPAVLQSSGLYSLSSVVTVPSSSLGTQTYICNVNHKPSNTKVDKKVEPKSCD
light: DIQMTQSPSSLSASVGDRVTITCRASENQYGYLAWYQQKPGKVPKLLIYNYKNLVEGVPSRFSGSGSGTDFTLTISSLQPEDVATYYCQHHLGTPYTFGQGTKVEIKRTVAAPSVFIFPPSDEQLKSGTASVVCLLNNFYPREAKVQWKVDNALQSGNSQESVTEQDSKDSTYSLSSTLTLSKADYEKHKVYACEVTHQGLSSPVTKSFNRGEC
Take B2: the “Functional assay EC50 (PBMC cytokine release, in vitro CD137 activation)” value (from here on “Functional assay EC50”) in assay [2] came to 4.69 µg/mL.

B3: BE-942 (ZW 1+1) (bispecific antibody, human IgG1, L234A L235A)
heavy: QVQLVQSGAEVKKPGASVKVSCKASGYIFTSYYLHWVRQAPGQGLEWIGYINPQTGKTSYAQKFQGRVTMTRDTSTSTVYMELSSLRSEDTAVYYCAREYGNYNYPLDYWGQGTLVTVSSASTKGPSVFPLAPSSKSTSGGTAWLGCEVTDYFPEPVTVSWNSGALTSGVHTFPAVLESSGLYSLSSVVTVPSSSLGTQTYICNVNHKPSNTKVDKKVEPKSCDKTHTCPPCPAPEAAGGPSVFLFPPKPKDTLMISRTPEVTCVVVSVSHEDPEVKFNWYVDGVEVHNAKTKPREEQYNSTYRVVSVLTVLHQDWLNGKEYKCKVSNKALPAPIEKTISKAKGQPREPQVYVLPPSRDELTKNQVSLLCLVKGFYPSDIAVEWESNGQPENNYLTWPPVLDSDGSFFLYSKLTVDKSRWQQGNVFSCSVMHEALHNHYTQKSLSLSPGK
light: B2 light with F116A, Q124R, L135V, T178R
chain: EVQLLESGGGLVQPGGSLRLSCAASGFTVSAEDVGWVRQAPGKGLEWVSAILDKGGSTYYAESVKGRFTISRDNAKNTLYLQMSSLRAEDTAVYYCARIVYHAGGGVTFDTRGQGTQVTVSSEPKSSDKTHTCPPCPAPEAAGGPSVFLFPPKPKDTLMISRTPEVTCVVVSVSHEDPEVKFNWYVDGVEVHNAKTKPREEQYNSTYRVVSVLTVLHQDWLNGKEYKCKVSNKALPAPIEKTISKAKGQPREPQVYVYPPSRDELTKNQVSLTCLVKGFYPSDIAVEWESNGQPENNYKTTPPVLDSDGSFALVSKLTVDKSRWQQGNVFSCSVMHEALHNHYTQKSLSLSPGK
Take B3: the “Functional assay EC50” value in assay [2] stood at 25.1 µg/mL.

B4: BE-375 (E-IgG1-BGA-5623) (bispecific antibody)
heavy: not shown
light: B2 light
B4: in assay [2], the “Functional assay EC50” value was found to be 1.76 µg/mL.

B5: BE-244 (A-(G4S)3-BGA-5623) (bispecific antibody, human IgG1, kappa)
heavy: QVQLVQSGAEVKKPGASVKVSCKASGYIFTSYYLHWVRQAPGQGLEWIGYINPQTGKTSYAQKFQGRVTMTRDTSTSTVYMELSSLRSEDTAVYYCAREYGNYNYPLDYWGQGTLVTVSSASTKGPSVFPLAPSSKSTSGGTAALGCLVKDYFPEPVTVSWNSGALTSGVHTFPAVLQSSGLYSLSSVVTVPSSSLGTQTYICNVNHKPSNTKVDKKVEPKSCDKTHTCPPCPAPPAAGPSVFLFPPKPKDTLMISRTPEVTCVVVDVSHEDPEVKFNWYVDGVEVHNAKTKPREEQYNSTYRVVSVLTVLHQDWLNGKEYKCKVSNKALAAPIEKTISKAKGQPREPQVYTLPPSREEMTKNQVSLTCLVKGFYPSDIAVEWESNGQPENNYKTTPPVLDSDGSFFLYSKLTVDKSRWQQGNVFSCSVMHEALHNHYTQKSLSLSPGKGGGGSGGGGSGGGGSEVQLLESGGGLVQPGGSLRLSCAASGFTVSAEDVGWVRQAPGKGLEWVSAILDKGGSTYYAESVKGRFTISRDNAKNTLYLQMSSLRAEDTAVYYCARIVYHAGGGVTFDTRGQGTQVTVSS
light: B2 light
Regarding B5, in assay [2], the “Functional assay EC50” value worked out at 0.18 µg/mL.

B6: BE-740 (A-IgG1-BGA-5623) (bispecific antibody)
heavy: not shown
light: B2 light
Take B6: the “Functional assay EC50” value in assay [2] was determined as 0.17 µg/mL.

B7: BE-755 (ZW1+2) (bispecific antibody, human IgG1, L234A L235A)
heavy: B3 heavy
light: B2 light with F116A, Q124R, L135V, T178R
chain: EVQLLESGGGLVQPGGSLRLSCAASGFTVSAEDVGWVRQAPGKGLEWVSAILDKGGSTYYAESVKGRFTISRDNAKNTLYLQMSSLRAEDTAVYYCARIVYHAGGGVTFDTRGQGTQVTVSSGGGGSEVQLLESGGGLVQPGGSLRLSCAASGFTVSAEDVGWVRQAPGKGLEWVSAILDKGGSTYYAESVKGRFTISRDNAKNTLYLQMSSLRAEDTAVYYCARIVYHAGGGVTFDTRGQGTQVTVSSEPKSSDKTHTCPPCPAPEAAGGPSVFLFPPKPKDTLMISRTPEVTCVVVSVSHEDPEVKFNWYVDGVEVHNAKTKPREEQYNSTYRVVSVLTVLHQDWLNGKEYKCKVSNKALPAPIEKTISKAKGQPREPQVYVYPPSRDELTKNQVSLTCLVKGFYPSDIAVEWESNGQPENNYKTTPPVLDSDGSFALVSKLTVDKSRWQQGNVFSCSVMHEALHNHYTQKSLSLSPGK
Turning to B7, the “Functional assay EC50” value in assay [2] came out at 1.16 µg/mL.

B8: BE-718 (A-BGA-5623-BGA-5623) (bispecific antibody, human IgG1, kappa)
heavy: QVQLVQSGAEVKKPGASVKVSCKASGYIFTSYYLHWVRQAPGQGLEWIGYINPQTGKTSYAQKFQGRVTMTRDTSTSTVYMELSSLRSEDTAVYYCAREYGNYNYPLDYWGQGTLVTVSSASTKGPSVFPLAPSSKSTSGGTAALGCLVKDYFPEPVTVSWNSGALTSGVHTFPAVLQSSGLYSLSSVVTVPSSSLGTQTYICNVNHKPSNTKVDKKVEPKSCDKTHTCPPCPAPPAAGPSVFLFPPKPKDTLMISRTPEVTCVVVDVSHEDPEVKFNWYVDGVEVHNAKTKPREEQYNSTYRVVSVLTVLHQDWLNGKEYKCKVSNKALAAPIEKTISKAKGQPREPQVYTLPPSREEMTKNQVSLTCLVKGFYPSDIAVEWESNGQPENNYKTTPPVLDSDGSFFLYSKLTVDKSRWQQGNVFSCSVMHEALHNHYTQKSLSLSPGKGGGGSEVQLLESGGGLVQPGGSLRLSCAASGFTVSAEDVGWVRQAPGKGLEWVSAILDKGGSTYYAESVKGRFTISRDNAKNTLYLQMSSLRAEDTAVYYCARIVYHAGGGVTFDTRGQGTQVTVSSGGGGSEVQLLESGGGLVQPGGSLRLSCAASGFTVSAEDVGWVRQAPGKGLEWVSAILDKGGSTYYAESVKGRFTISRDNAKNTLYLQMSSLRAEDTAVYYCARIVYHAGGGVTFDTRGQGTQVTVSS
light: B2 light
As for B8, in assay [2], the “Functional assay EC50” value came out at 0.01 µg/mL.

B9: Format A BGA-7916 (bispecific antibody, human IgG1, kappa)
heavy: QVQLVQSGAEVKKPGASVKVSCKASGYIFTSYYLHWVRQAPGQGLEWIGYINPQTGKTSYAQKFQGRVTMTRDTSTSTVYMELSSLRSEDTAVYYCAREYGNYNYPLDYWGQGTLVTVSSASTKGPSVFPLAPSSKSTSGGTAALGCLVKDYFPEPVTVSWNSGALTSGVHTFPAVLQSSGLYSLSSVVTVPSSSLGTQTYICNVNHKPSNTKVDKKVEPKSCDKTHTCPPCPAPPAAGPSVFLFPPKPKDTLMISRTPEVTCVVVDVSHEDPEVKFNWYVDGVEVHNAKTKPREEQYNSTYRVVSVLTVLHQDWLNGKEYKCKVSNKALAAPIEKTISKAKGQPREPQVYTLPPSREEMTKNQVSLTCLVKGFYPSDIAVEWESNGQPENNYKTTPPVLDSDGSFFLYSKLTVDKSRWQQGNVFSCSVMHEALHNHYTQKSLSLSPGKGGGGSEVQLLESGGGLVQPGGSLRLSCAASGFTVSAEDVGWVRQAPGKGLEWVSAILDSGGSTYYAESVKGRFTISRDNAKNTLYLQMSSLRAEDTAVYYCARVVYHAGGGVTYDYRGQGTQVTVSS
light: B2 light
Consider B9, for which, in assay [3], binding was characterised by a dissociation constant (Kd) of 203 nM.

B10: Format A BGA-7746 (bispecific antibody, human IgG1, kappa)
heavy: B9 heavy with S508F, Y563F, Y565T
light: B2 light
Take B10: in assay [3], the Kd came out at 245 nM.

B11: Format A BGA-9442 (bispecific antibody, human IgG1, kappa)
heavy: B9 heavy with V483I, V553Y, Y563F, Y565L
light: B2 light
Regarding B11, in assay [3], the Kd amounted to 164 nM.

B12: Format A BGA-5385 (bispecific antibody, human IgG1, kappa)
heavy: B9 heavy with V483L, S508H, V554I, Y563F, Y565T
light: B2 light
Molecule B12 came in with a Kd in assay [3] of 154 nM.

B13: Format A BGA-9468 (bispecific antibody, human IgG1, kappa)
heavy: B9 heavy with A557S, Y563F, Y565L
light: B2 light
Regarding B13, binding in assay [3] was put at a Kd of 873 nM.

B14: Format A BGA-8425 (bispecific antibody, human IgG1, kappa)
heavy: B9 heavy with V483L
light: B2 light
Take B14: binding in assay [3] was characterised by a dissociation constant (Kd) of 189 nM.

B15: BGA288 (antibody, V domains shown)
VH: EVLLQQSGPELVKPGASVKIFCKASGYTFTDYNIDWVQQSHGKSLEWIGDIGPNYGGTIYNQKFKGKATLTVAKSSSTAYMELRSLTSEDTAVYYCARRGSIPRAVDYWGQGTSVTVSS
VL: DIKMTQSPSSMYASLGERVTITCKASQDIHNYLSWFQQKPGKSPKTLIYRANRLVDGVPSRFSGSGSGQDYSLTISSLEYEDMGIYYCLQYDEFPYTFGGGTKLEIK
With B15, the binding result in assay [1] was “binds”.
